Laboratory results reported in article PMC11718236, “The Psu protein of phage satellite P4 inhibits transcription termination factor ρ by forced hyper-oligomerization” (Nature Communications, 2023).
Residue numbers refer to the chain shown, from its start. Names may count otherwise.

What was measured:
[1] = target: T1, Rho P167L;Psu (polarity suppression protein) (Escherichia coli;phage satellite P4, UniProt P0AG30;P05460 1-419;1-190, P167L|); assay: fluorescence anisotropy; Psu added to pre-formed ρP167L-dC15-rU12-FAM complex; RNA not displaced; ADP-BeF3; 20 mM HEPES pH 7.5, 150 mM KCl, 5% glycerol, 5 mM MgCl2, 0.5 mM TCEP; SBS assays with 10 uM unlabeled dC15 and 2 mM ADP-BeF3; probe 5 uM dC15-FAM or 2 uM rU12-FAM; temperature not stated; conditions: protein: recombinant;recombinant; tags: none;none; chain copies: 6;2; label: FAM (fluorescein); single strand
[2] = target: T2, Rho (transcription termination factor ρ, wt);Psu (polarity suppression protein) (Escherichia coli;phage satellite P4, UniProt P0AG30;P05460 1-419;1-190, |); assay: fluorescence anisotropy; SBS; IC50 of Psu as inhibitor (very weak inhibition); dC15-blocked PBS; 2 mM ADP-BeF3; 20 mM HEPES pH 7.5, 150 mM KCl, 5% glycerol, 5 mM MgCl2, 0.5 mM TCEP; SBS assays with 10 uM unlabeled dC15 and 2 mM ADP-BeF3; probe 5 uM dC15-FAM or 2 uM rU12-FAM; temperature not stated; conditions: protein: recombinant;recombinant; tags: none;none; chain copies: 6;2; label: FAM (fluorescein); single strand
[3] = target: transcription termination factor ρ P167L variant, non-tagged, purified (E. coli, UniProt P0AG30 1-419, P167L); assay: cell-based or functional assay
[4] = target: transcription termination factor ρ (wild type), non-tagged, purified (E. coli, UniProt P0AG30 1-419); assay: cell-based or functional assay
[5] = target: the molecule itself; assay: cryo-EM structure; ρ^P167L-ATPγS-Psu complexes; 10 mM TRIS-HCl pH 8.0, 120 mM KOAc, 5 mM Mg(OAc)2, 5 µM ZnCl2; 1 mM ATPγS; single-particle analysis
[6] = target: T2, Rho (transcription termination factor …); assay: fluorescence anisotropy; PBS; Psu up to 30 uM dimer has no effect; ADP-BeF3; 20 mM HEPES pH 7.5, 150 mM KCl, 5% glycerol, 5 mM MgCl2, 0.5 mM TCEP; SBS assays with 10 uM unlabeled dC15 and 2 mM ADP-BeF3; probe 5 uM dC15-FAM or 2 uM rU12-FAM; temperature not stated; conditions: protein: recombinant;recombinant; tags: none;none; chain copies: 6;2; label: FAM (fluorescein); single strand
[7] = target: T1, Rho P167L;Psu (polarity suppression …); assay: as above; conditions: protein: recombinant;recombinant; tags: none;none; chain copies: 6;2; label: FAM (fluorescein); single strand

UUUUUUUUUUUU (ssRNA) [rU12-FAM]
binding result [1]: binds
IC50 [2]: 299 µM

B1: phage satellite P4 polarity suppression protein Psu (wild type), purified (natural protein)
chain: MESTALQQAFDTCQNNKAAWLQRKNELAAAEQEYLRLLSGEGRNVSRLDELRNIIEVRKWQVNQAAGRYIRSHEAVQHISIRDRLNDFMQQHGTALAAALAPELMGYSELTAIARNCAIQRATDALREALLSWLAKGEKINYSAQDSDILTTIGFRPDVASVDDSREKFTPAQNMIFSRKSAQLASRQSV
notes: polarity suppression protein Psu of phage satellite P4; No tag is told for the purified protein; also called Psu^wt; wt Psu; source: E. coli BL21 RIL, purified (ammonium sulfate precipitation, heparin, MonoQ, MonoS, Superdex 75 SEC)
IC50 of Psu for inhibition of rU12-FAM binding at the SBS of ρ^P167L (fluorescence anisotropy, with ADP-BeF3 and dC15) [3]: 2.8 µM
IC50 of inhibition of the RNA-stimulated ATPase activity of ρ^P167L by Psu (TLC, 1 h, 37 °C) [3]: 0.8 µM
decrease of the ρ^P167L ATPase rate at Psu dimer:ρ hexamer 10:1 and 50:1 (1.5-fold and 4-fold) [3]: 4 fold
IC50 of Psu for inhibition of rU12-FAM binding at the SBS of ρ^wt (fluorescence anisotropy, with ADP-BeF3 and dC15) [4]: 299 µM
IC50 of inhibition of the RNA-stimulated ATPase activity of ρ^wt by Psu (TLC, 1 h, 37 °C) [4]: 0.9 µM
decrease of the ρ^wt ATPase rate at Psu dimer:ρ hexamer 10:1 and 50:1 (1.3-fold and 1.6-fold) [4]: 1.6 fold
stoichiometry N [5]: 2

B2: Psu R43A variant, purified (natural protein, phage satellite P4)
chain: B1 chain with R43A
IC50 of inhibition of the RNA-stimulated ATPase activity of ρ^P167L by Psu^R43A (TLC, 1 h, 37 °C) [3]: 12.9 µM

CCCCCCCCCCCCCCC (ssDNA) [dC15-FAM]
binding result [6]: binds
binding result [7]: binds
